Substrate in this data set: Nc1nc2c(ncn2[C@@H]2O[C@H](COP(=O)(O)OP(=O)(O)OP(=O)(O)O)[C@@H](O)[C@H]2O)c(=O)[nH]1
Put plainly: Malachite green phosphate release, Michaelis-Menten fit. It is filed as biochemical, Sulfolobus acidocaldarius. The conditions noted are these: 65 °C, 0-500 µM GTP, 50 mM Tris pH 8.0, 150 mM NaCl, 10 mM MgCl2, 10 µM SaGPN.

The Km is the substrate concentration at which the rate is half of its maximum.

B1: SaGPN (Sulfolobus acidocaldarius DSM 639) (protein)
chain: MYFIFVLGTAGSGKTTLVKALQDYLLNNELDTAIINLDPAVEVLPYKPDIDAREYVDVYDVMNKYELGPNSSLVISVDLLLTKAKELKEDLNQLQANYVLVDTPGQIELFAYRDTGKILSSFISEGSKSVSVFLFDSYLSKDPKSFLSLFLLSSSIKFRIDMPQISVLSKVDLLSSSELERMRSWIEDGSIIDELGSIDEYSFELVKTIVENLESFPIPVSSTNFSGLDQLYAEVQKVLAGGEDFETEEPNPRL
notes: E. coli BL21(DE3) Rosetta; Y2-A240 built, 14 C-terminal residues disordered
For B1, the Michaelis constant (Km) was found to be 40.48 µM.

The values are drawn from paper PMC10746158, “Archaeal GPN-loop GTPases involve a lock-switch-rock mechanism for GTP hydrolysis” (mBio, 2023).
